Patent publication US20170204142A1

Tests used:
[1] = molecular target: full-length H1N1 A/Puerto Rico/8/34 recombinant HA (rHA) (influenza A virus H1N1 A/Puerto Rico/8/34) (UniProt P03452)
[2] = molecular target: H1HA10 (influenza A virus H1N1 A/Puerto Rico/8/34) (UniProt A4GCI6)

| Substance | Kd [1] [nM] | koff [1] [s⁻¹] | kon [1] [M⁻¹ s⁻¹] | Kd [2] [nM] | koff [2] [s⁻¹] | kon [2] [M⁻¹ s⁻¹] |
| --- | --- | --- | --- | --- | --- | --- |
| FI6v3-scFv | 8.8 | 0.00216 | 245000 | – | – | – |
| F10-scFv | 2.9 | 0.00121 | 415000 | – | – | – |
| CR6261 IgG (antibody) | 8.9 | 0.00258 | 289000 | 315 | 0.00785 | 24900 |
